Reference: patent US20240148884A1 (Scripps Research, published 2024)
Like-named read-outs stand apart in the source and are kept apart here. Bridge positions count the residues as written; N and C are the ends. Square brackets hold non-standard residues; d marks the D form. Ends that are not written are not given here. C20L5A staple = not defined here; L5A(S) staple = not defined here; C20L5A = not defined here; L5A = not defined here; Aib = CC(C)(N)C(=O)O

Key:
Assay in all cases: cell-based or functional assay
[1] = molecular target: T1, human GLP-1R (human, UniProt P43220 24-463)
Target sequence in this assay (P43220 24-463): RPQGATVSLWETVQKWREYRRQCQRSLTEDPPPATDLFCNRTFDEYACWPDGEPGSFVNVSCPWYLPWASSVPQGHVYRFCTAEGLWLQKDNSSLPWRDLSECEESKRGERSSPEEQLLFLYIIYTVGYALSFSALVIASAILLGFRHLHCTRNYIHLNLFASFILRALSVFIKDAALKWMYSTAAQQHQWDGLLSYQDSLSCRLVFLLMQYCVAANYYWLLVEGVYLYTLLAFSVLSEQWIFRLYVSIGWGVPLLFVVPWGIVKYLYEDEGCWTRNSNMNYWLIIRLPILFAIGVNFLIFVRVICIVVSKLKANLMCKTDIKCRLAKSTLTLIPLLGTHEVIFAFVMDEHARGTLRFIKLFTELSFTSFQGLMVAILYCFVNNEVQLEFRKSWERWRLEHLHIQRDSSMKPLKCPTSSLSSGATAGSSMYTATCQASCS

[2] = molecular target: T2, human GIPR (human, UniProt P48546 22-466)
T2 sequence (looked up): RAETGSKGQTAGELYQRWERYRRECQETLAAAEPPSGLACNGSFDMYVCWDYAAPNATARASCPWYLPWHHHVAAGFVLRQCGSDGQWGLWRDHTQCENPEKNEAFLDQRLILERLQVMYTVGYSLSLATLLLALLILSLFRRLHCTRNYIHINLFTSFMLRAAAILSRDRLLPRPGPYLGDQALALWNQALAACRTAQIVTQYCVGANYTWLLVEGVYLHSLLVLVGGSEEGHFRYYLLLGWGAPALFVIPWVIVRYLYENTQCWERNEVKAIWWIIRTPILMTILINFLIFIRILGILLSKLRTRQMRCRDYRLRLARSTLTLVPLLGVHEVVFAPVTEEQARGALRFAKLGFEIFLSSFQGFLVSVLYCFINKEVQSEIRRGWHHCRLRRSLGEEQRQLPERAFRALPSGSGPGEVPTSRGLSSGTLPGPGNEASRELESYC

[3] = molecular target: T1, human GLP-1R; remark: listed apart in the source
Target sequence in this assay (P43220 24-463): as the sequence (P43220 24-463) above

[4] = molecular target: T2, human GIPR; remark: listed apart in the source
[5] = molecular target: T1, human GLP-1R; remark: listed apart in the source
[6] = molecular target: T2, human GIPR; remark: listed apart in the source
[7] = molecular target: T1, human GLP-1R; remark: listed apart in the source
Target sequence in this assay (P43220 24-463): as the sequence (P43220 24-463) above

[8] = molecular target: T2, human GIPR; remark: listed apart in the source
[9] = molecular target: T2, human GIPR; remark: listed apart in the source
[10] = molecular target: cynomolgous monkey GLP1R (cynomolgous monkey)
[11] = molecular target: cynomolgous monkey GIPR (cynomolgous monkey)
[12] = molecular target: T3, mouse GLP1R (mouse, UniProt O35659 22-463, limits assumed)
T3 sequence (looked up): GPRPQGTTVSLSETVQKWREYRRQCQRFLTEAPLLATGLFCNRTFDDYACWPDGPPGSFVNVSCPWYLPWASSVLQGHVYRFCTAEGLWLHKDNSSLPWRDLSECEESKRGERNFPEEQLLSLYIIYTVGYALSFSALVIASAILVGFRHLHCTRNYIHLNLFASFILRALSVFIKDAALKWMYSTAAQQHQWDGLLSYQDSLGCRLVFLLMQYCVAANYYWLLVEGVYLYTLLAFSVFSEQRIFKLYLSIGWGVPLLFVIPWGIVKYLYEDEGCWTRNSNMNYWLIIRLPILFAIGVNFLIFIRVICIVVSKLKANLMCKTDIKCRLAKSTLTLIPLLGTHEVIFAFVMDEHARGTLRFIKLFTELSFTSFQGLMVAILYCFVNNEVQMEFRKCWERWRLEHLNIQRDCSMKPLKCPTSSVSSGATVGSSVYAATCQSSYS

B1: mCLZ715 (peptide)
peptide: YXEGTFTSDYSIYKDKQAAXKFVNWLLAGGPSSGAPPPS
modifications: Aib at positions 2 and 20; C-terminal amide (NH2); staple K5 attached at Lys14 and Lys21
EC50 of receptor-mediated cAMP synthesis [1]: 0.02 nM | EC50 of receptor-mediated cAMP synthesis [2]: 0.02 nM

B2: mCMD307 (2050-K4) (peptide)
peptide: YXEGTFTSDYSIYKDKQAAXKFVNWLLAGGPSSGAPPPS
modifications: Aib at positions 2 and 20; C-terminal amide (NH2); staple K4 attached at Lys14 and Lys21
EC50 of receptor-mediated cAMP synthesis [3]: 0.03 nM | EC50 of receptor-mediated cAMP synthesis [4]: 0.01 nM | EC50 of receptor-mediated cAMP synthesis [1]: 0.01 nM | EC50 of receptor-mediated cAMP synthesis [2]: 0.02 nM | EC50 of receptor-mediated cAMP synthesis [5]: 0.03 nM | EC50 of receptor-mediated cAMP synthesis [6]: 0.01 nM | EC50 of receptor-mediated cAMP synthesis (02/19) [7]: 0.01 nM | EC50 of receptor-mediated cAMP synthesis (3/25) [7]: 0.01 nM | EC50 of receptor-mediated cAMP synthesis (03/26) [7]: 0.01 nM | EC50 of receptor-mediated cAMP synthesis (average) [7]: 0.01 nM | EC50 of receptor-mediated cAMP synthesis (03/25) [8]: 0.01 nM | EC50 of receptor-mediated cAMP synthesis (03/26) [8]: 0.01 nM | EC50 of receptor-mediated cAMP synthesis (average) [8]: 0.02 nM

B3: mCMV268 (27I, C(17-24)-C20L5A) (peptide)
peptide: YXEGTFTSDYSIYLDKCAAXEFVCWLIAGGPSSGAPPPS
modifications: Aib at positions 2 and 20; C-terminal amide (NH2); staple C20L5A attached at Cys17 and Cys24
In Vitro Potency GIPR EC50 [nM], 10% FBS [9]: 0.09 nM | In Vitro Potency GIPR EC50 [nM], No Serum [9]: 0.01 nM | In Vitro Potency GLP1R EC50 [nM], Cyno [10]: 0.22 nM | In Vitro Potency GIPR EC50 [nM], Cyno [11]: 0.16 nM | EC50 of receptor-mediated cAMP synthesis (02/19) [8]: 0.05 nM

Y[Aib]EGTFTSDYSIYLDKCAA[Aib]EFVCWLIAGGPSSGAPPPS-NH2 (linker 17-24 via L5A(S) staple; reading uncertain) [mCMZ371 (C(17-24)-L5A(S))]
In Vitro Potency GIPR EC50 [nM], No Serum [9]: 0.01 nM | In Vitro Potency GLP1R EC50 [nM], Cyno [10]: 0.11 nM | In Vitro Potency GLP1R EC50 [nM], Mouse [12]: 0.09 nM

B4: mCMC759 (C(14-21)-L5A) (peptide)
peptide: YXEGTFTSDYSIYCDKQAAXCFVNWLLAGGPSSGAPPPS
modifications: Aib at positions 2 and 20; C-terminal amide (NH2); staple L5A attached at Cys14 and Cys21
EC50 of receptor-mediated cAMP synthesis [4]: 0.03 nM | EC50 of receptor-mediated cAMP synthesis [6]: 0.03 nM

Y[Aib]EGTFTSDYSIYCDKQAA[Aib]CFVNWLLAGGPSSGAPPPS-NH2 (linker 14-21 via C20L5A staple; reading uncertain) [C(14-21)-C20L5A]
EC50 of receptor-mediated cAMP synthesis [4]: 0.05 nM | EC50 of receptor-mediated cAMP synthesis (average) [8]: 0.05 nM

Y[Aib]EGTFTSDYSIYCDKQAA[Aib]CFVNWLIAGGPSSGAPPPS-NH2 (linker 14-21 via L5A; reading uncertain) [27I, C(14-21)-L5A]
EC50 of receptor-mediated cAMP synthesis [4]: 0.03 nM

B5: mCMV266 (27I, C(14-21)-C20L5A) (peptide)
peptide: YXEGTFTSDYSIYCDKQAAXCFVNWLIAGGPSSGAPPPS
modifications: Aib at positions 2 and 20; C-terminal amide (NH2); staple C20L5A attached at Cys14 and Cys21
EC50 of receptor-mediated cAMP synthesis [3]: 0.05 nM | EC50 of receptor-mediated cAMP synthesis (02/19) [7]: 0.03 nM | EC50 of receptor-mediated cAMP synthesis (3/25) [7]: 0.05 nM | EC50 of receptor-mediated cAMP synthesis (average) [7]: 0.05 nM

Y[Aib]EGTFTSDYSIYLDKCAA[Aib]EFVCWLLAGGPSSGAPPPS-NH2 (linker 17-24 via L5A; reading uncertain) [C(17-24)-L5A]
EC50 of receptor-mediated cAMP synthesis [6]: 0.05 nM

Y[Aib]EGTFTSDYSIYLDKCAA[Aib]EFVCWLLAGGPSSGAPPPS-NH2 (linker 17-24 via C20L5A; reading uncertain) [C(17-24)-C20L5A]
EC50 of receptor-mediated cAMP synthesis [6]: 0.05 nM | EC50 of receptor-mediated cAMP synthesis (3/25) [7]: 0.1 nM | EC50 of receptor-mediated cAMP synthesis (03/26) [7]: 0.09 nM | EC50 of receptor-mediated cAMP synthesis (average) [7]: 0.09 nM | EC50 of receptor-mediated cAMP synthesis (03/25) [8]: 0.02 nM | EC50 of receptor-mediated cAMP synthesis (03/26) [8]: 0.03 nM | EC50 of receptor-mediated cAMP synthesis (average) [8]: 0.03 nM

Y[Aib]EGTFTSDYSIYLDKCAQ[Aib]AFVCWLIAQGPSSGAPPPS-NH2 (linker 17-24 via C20L5A; reading uncertain) [19Q, 21A, 27I, 29Q, C(17-24) - C20L5A]
EC50 of receptor-mediated cAMP synthesis [6]: 0.02 nM

Y[Aib]EGTYTSDYSIYLDKCAA[Aib]EFVCWLIAGGPSSGAPPPS-NH2 (linker 17-24 via C20L5A; reading uncertain) [6Y, 27I, C(17-24)-C20L5A]
EC50 of receptor-mediated cAMP synthesis (02/19) [7]: 0.05 nM
